Measured values from PMC2808226 (Molecular Biology of the Cell, 2010).

Assays:
[1] = target: nicotinic acetylcholine receptor (mouse (endogenous in gastrocnemius muscle and in myotubes)) (UniProt P04756); assay: pull-down
nAChR-α-c-myc = nAChR-α-c-myc (UniProt P04756 21-457); assay: co-IP
Sequence of nAChR-α-c-myc (P04756 21-457): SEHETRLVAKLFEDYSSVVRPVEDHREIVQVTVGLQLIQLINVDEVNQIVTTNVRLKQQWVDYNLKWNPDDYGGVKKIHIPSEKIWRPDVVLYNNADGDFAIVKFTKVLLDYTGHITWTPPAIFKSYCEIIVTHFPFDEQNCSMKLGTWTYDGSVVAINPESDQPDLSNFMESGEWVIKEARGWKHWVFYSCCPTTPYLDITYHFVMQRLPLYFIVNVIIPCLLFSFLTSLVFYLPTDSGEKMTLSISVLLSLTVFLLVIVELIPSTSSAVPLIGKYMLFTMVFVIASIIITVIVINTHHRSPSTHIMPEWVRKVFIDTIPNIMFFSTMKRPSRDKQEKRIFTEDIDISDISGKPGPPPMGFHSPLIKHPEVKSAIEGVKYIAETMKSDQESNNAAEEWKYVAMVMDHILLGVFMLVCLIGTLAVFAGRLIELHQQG

Sequence of nicotinic acetylcholine receptor (mouse (endogenous in gastrocnemius muscle and in myotubes)) (P04756 whole entry, looked up): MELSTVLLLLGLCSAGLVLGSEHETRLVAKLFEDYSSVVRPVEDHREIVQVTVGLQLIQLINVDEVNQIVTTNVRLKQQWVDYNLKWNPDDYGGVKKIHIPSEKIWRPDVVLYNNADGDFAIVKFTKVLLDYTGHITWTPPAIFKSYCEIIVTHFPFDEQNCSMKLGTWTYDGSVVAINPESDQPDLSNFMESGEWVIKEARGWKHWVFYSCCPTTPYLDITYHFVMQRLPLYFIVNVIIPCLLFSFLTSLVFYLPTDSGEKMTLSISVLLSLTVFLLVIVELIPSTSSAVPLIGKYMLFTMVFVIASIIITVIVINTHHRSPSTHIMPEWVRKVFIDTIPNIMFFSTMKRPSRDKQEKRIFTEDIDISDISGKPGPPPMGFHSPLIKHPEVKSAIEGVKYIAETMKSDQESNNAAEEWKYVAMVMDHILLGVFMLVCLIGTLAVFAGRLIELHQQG

Molecule | percent of caveolin-3 that interacts with the nAChR, after agrin treatment [1] | percent of caveolin-3 that interacts with the nAChR, resting conditions [1] | stoichiometry N (nAChR-α-c-myc)
caveolin-3 (from UniProt P51637 1-151) (natural protein) | 5% | – | –
caveolin-3-c-myc (natural protein) MMTEEHTDLEARIIKDIHCKEIDLVNRDPKNINEDIVKVDFEDVIAEPEGTYSFDGVWKVSFTTFTVSKYWCYRLLSTLLGVPLALLWGFLFACISFCHIWAVVPCIKSYLIEIQCISHIYSLCIRTFCNPLFAALGQVCSNIKVVLRREG | – | 0.25% | ~14 caveolin-3 per nAChR
